US20250154231A1 (RQBIO COVID, published 2025)

B1: Omi34 (antibody, V domains shown)
VH: QVQLVQSGAEVKKPGSSVKVSCKASGGTFSSYGIRWVRQAPGQGLEWMGGIIPVFGATNYAQKFQDRVTITADKSTATAYMELSSLKSDDTAVYFCARDALSASGWTGPFDSWGQGTLVTVSS
VL: QSVLTQPPSVSGAPGQRVTISCTGSSSNIGADYDVHWYQQLPGAAPKLLIYGNNNRPSGVPDRFSGSKSGTSASLAITGLQAEDEADYYCQSYDSSQNAFYVFGTGTKVTVL
B2: Omi23 (antibody, V domains shown)
VH: QVQLQESGPGLVKSSQTLSLTCTVSGDSISRGGYYWSWIRQHPGKGLEWIGSIYYSGSTYYNPSLKSRFTISVDTSKNQFSLKLSSVTAADTAVYHCAREIGFLDYWGQGTLVTVSS
VL: AIQMTQSPSSLSASVGDRVTITCRASQAISNSLAWYQQKPGKAPKLLLYAASTLESGVPSRFSGSGSGTDFTLTISSLQPEDFATYFCQQYYSTPPRTFGQGTKVDIK
B3: Omi36 (antibody, V domains shown)
VH: EVQLVESGGGVVQPGGSLRLSCAASGIIVSANYMTWVRQAPGKGLEWVSVIYPGGSTFYADSVKGRFTISRDNSKNTLYLQMNSLRVEDSAVYYCARDLELAGFNDYWGQGTLVTVSS
VL: DIVMTQSPGTLSLSPGERATLSCRTSQSVSSNYLAWYQQKPGQAPRLLIYGASSRATGIPDRFSGSGSGTDFTLTISRLEPEDFAVYYCQQFGSSPRYTFGQGTKVEIK
B4: Omi02 (antibody, V domains shown)
VH: EVQLVESGAEVKKPGSSVKVSCKASGGTFSSYAINWVRQAPGQGLEWMGGIIPIFRTPHYAQKFQGRVTITADESTGTAYMELSSLRSEDTAVYYCASPSCGGDCPQYLKSSKLDWYFDLWGRGTLVTVSS
VL: VIWMTQSPGTLSLSPGERATLSCRASQSVSSTYLAWYQQKPGQAPRLLIYGASSRATGIPDRFSGSGSGTDFTLTISRLEPEDFAVYYCQHYGSSPLTFGQGTRLEIK
B5: Omi30 (antibody, V domains shown)
VH: EVQLVESGAEVKKPGSSVKVSCKASGGTFSRYAISWVRQAPGQGLEWMGGIIPIFDATNYAQKFHDRVTITADKSASTAYMELSSLRSDDTAVYYCARERTYCSGGTCYGGYFYYGMDVWGQGTTVTVSS
VL: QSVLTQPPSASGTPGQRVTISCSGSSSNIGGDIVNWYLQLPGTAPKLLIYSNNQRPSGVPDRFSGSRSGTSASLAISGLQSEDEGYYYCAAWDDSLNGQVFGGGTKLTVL
B6: Omi28 (antibody, V domains shown)
VH: EVQLVESGGGLVQPGGSLRLSCAASGVIVSSNYMSWVRQAPGKGLQWVSVIYSGGSTFYADSVKGRFTISRDNSKNTLYLQMNSLRAEDTAVYYCARDLLEAGGTDYWGQGTLVTVSS
VL: DVVMTQSPGTLSLSPGERATLSCRASQFIGSSYLAWYQQKPGQAPRLLIYGASNRATGVPDRFSGSGSGTDFTLTISRLEPEDFAVYYCQQYGSAPGTFGQGTKVEIK
B7: Omi29 (antibody, V domains shown)
VH: QVQLVESGGGLVQPGGSLRLSCAASGLIVSRNYMSWVRQAPGKGLEWVSLIYAGGSTFYSDSVKGRFTISRHSSENTLFLQMNSLRAEDTAVYYCARDLVHYGMDVWGQGTTVTVSS
VL: NFMLTQPASVSGSPGQSITISCTGTSSDVGGYNYVSWYQQHPGKAPKLMIYDVSNRPSGVSNRFSGSNSGNTASLTISGLQAEDEADYYCSSYTSGSTWVFGGGTKLTVL
B8: Omi20 (antibody, V domains shown)
VH: EVQLVESGGGLVQPGGSLRLSCEASEITVSSNYMNWVRQAPGKGLEWVSVLFAGGTTYYADSVKGRFTISRDNSKNTLYLQMNTLRIEDTAIYYCARDLVAYGVDVWGQGTTVTVSS
VL: AIQMTQSPSFLSASVGDRVTITCRASQGISGDLAWYQQKPGKAPKLLIYAASTLQSGVPSRFSGSGSGTEFTLTISSLQPEDFATYYCQHLNSYPLTFGGGTKVEIK
B9: Omi32 (antibody, V domains shown)
VH: EVQLVESGGGVVQPGRSLRLSCAASGFTFSNYGMHWVRQAPGKGLEWVAVYWYDGGNKFYADSVKGRFTISRDNSKNTLYLQMNSLRVEDTAVYYCARDTAPPDYWGQGTLVTVSS
VL: AIRMTQSPGTLSLSPGERATLSCRASQSISSSFLAWYQQKPGQAPRLLIYGASSRATGIPDRFSGSGSGTDFTLTISRLEPEDFAVYYCQQYGTSPRLTFGGGTKVDIK
B10: Omi38 (antibody, V domains shown)
VH: QVQLVESGAEVKKPGSSVKVSCKASGGNFNMYTISWVRQAPGRGLEWMGRFIPIANKANYAQNFPGRVTITADKSTSTVYMELRSLTSDDTAVYYCARSGSYDAFDVWGQGTMVTVSS
VL: AIRMTQSPSTLSASVGDRVTITCRASQTINSWLAWYQQKPGKAPKLLIYDASNLESGVPSRFSGSGSGTEFTLTISSLQPDDFATYYCQQYESYSPITFGQGTRLEIK
B11: Omi39 (antibody, V domains shown)
VH: QVQLVESGGVVVQPGGSLRLSCAASGFSFDDYSMHWVRQAPGKGLEWVSVIYWDGVSKYYADSVKGRFTISRDNSKNSLYLQMNSLRTEDTAVYYCAKDSEDCSSTSCYMDVWGKGTTVTVSS
VL: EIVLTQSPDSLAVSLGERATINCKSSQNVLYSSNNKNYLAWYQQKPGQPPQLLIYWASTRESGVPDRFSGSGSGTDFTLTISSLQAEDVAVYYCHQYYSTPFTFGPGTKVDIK
B12: Omi24 (antibody, V domains shown)
VH: QVQLVESGAEVKKPGSSVKVSCKASGGTFSSHGVIWVRQAPGQGLEWMGGIIPIFPTANYAQKFQGRVTITADKPSNTAYMELSSLRSEDTAVYYCARARGEHDSVWGSFHYYFDYWGQGTLVTVSS
VL: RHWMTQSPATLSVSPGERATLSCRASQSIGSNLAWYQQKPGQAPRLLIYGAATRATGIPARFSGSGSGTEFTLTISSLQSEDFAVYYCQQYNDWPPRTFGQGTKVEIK
B13: Omi27 (antibody, V domains shown)
VH: EVQLLESGGGLVQPGGSLRLSCVASGLTVSSNYMSWVRQAPGKGLEWVSIIYPGGTTYYADSVKGRFTTSRDKSKNTLYLQMNSLRAEDTAVYYCARDLAVAGGMDVWGQGTTVTVSS
VL: EIVMTQSPSSLSASVGDRVTITCRASQGIGNDLGWYQQKPGKAPKVLIYAASNLQSGVPSRFSGSGSGTDFTLTISSLQPEDFATYYCLQDSNYPYTFGQGTKVEIK
B14: Omi31 (antibody, V domains shown)
VH: EVQLVQSGAEVKKPGSSVKVSCKASGGTFSSYGISWVRQAPGLGLEWMGGVIPILSAKHYAQRFQGRVTITADKSTGTAYMELSSLRSEDTAVYYCARDILHHDDLWGRFYYDGMDVWGQGTTVTVSS
VL: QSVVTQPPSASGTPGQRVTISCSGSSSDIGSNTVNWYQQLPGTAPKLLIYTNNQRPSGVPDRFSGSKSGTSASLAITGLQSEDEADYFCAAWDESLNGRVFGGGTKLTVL
B15: Omi26 (antibody, V domains shown)
VH: QVQLVQSGTEVKKPGASVKVSCKASDYTFTRFGIIWVRQAPGQGLEWMGQINPYNGNTDYAQKFQGRVTLTTDTSTNTAYMELRSLRSDDTAVYYCARSAGSPTGLDYWGQGTLVTVSS
VL: QSVVTQPPSVSEAPRQRVTISCSGSNSNIGNNAVNWYQQLPGKAPKLLVYYDDLLPSGVSDRFSGSKSGTSASLAISGLQSEDKADYYCAAWDDSLNALVFGGGTKLTVL
B16: Omi35 (antibody, V domains shown)
VH: QVQLVESGGGLVQPGRSLRLSCAASGFTFDDYAMHWVRQAPGKGLEWVSGSTWNSGTIDYADSVKGRFTISRDNAKNSLYLQMNSLRAEDTALYYCAKDRFRKGCSSTGCYKENYGMDVWGQGTTVTVSS
VL: QSVVTQPPSVSVAPGQTARITCGGTNIGSKSVHWYQQKPGQAPVLVVYDDSDRPSGIPERFSGSNSGNTATLTITWVEAGDEADYYCQVWDSSSDNVLFGGGTKLTVL
B17: Omi25 (antibody, V domains shown)
VH: QVQLVESGGGLVQPGRSLRLSCAASGFTFDDYAMHWVRQVPGKGLEWVSGISWNSGSIVYADFVKGRFTIARDNAKNSLFLQMNSLRAEDTALYYCAKSTALRHQYYYGMDVWGQGTTVTVSS
VL: AIQMTQSPSSLSASVGDRVTITCRTSQTISSYLNWYQQKPGKAPKLLIYDASSLQSGVPSRFSGSGYGTDFTLTISSLQPEDFATYFCQQSYNTPYAFGQGTKVEIK

Biological target: SARS-CoV-1 S protein (SARS-CoV-1, UniProt P59594 14-1195)
Assay: ELISA

Binder | binding result
B1 | no binding
B2 | no binding
B3 | no binding
B4 | no binding
B5 | no binding
B6 | no binding
B7 | no binding
B8 | no binding
B9 | no binding
B10 | no binding
B11 | no binding
B12 | no binding
B13 | no binding
B14 | no binding
B15 | no binding
B16 | no binding
B17 | no binding
